Reference: paper PMC5561112, “Thermodynamic and Kinetic Analyses of Iron Response Element (IRE)-mRNA Binding to Iron Regulatory Protein, IRP1”

B1: FRT IRE-RNA (ferritin IRE) (structured_RNA)
RNA: GUUCUUGCUUCAACAGUGUUUGAACGGAAC
B2: ACO2 IRE-RNA (mitochondrial aconitase IRE) (structured_RNA)
RNA: CCUCAUCUUUGUCAGUGCACAAAAUGGCG

How the values were obtained:
Conditions in all cases: protein: recombinant; label: 5' fluorescein; hairpin
[1] = target: T1, IRP1 (iron regulatory protein 1) (rabbit, UniProt Q01059 1-889); assay: fluorescence anisotropy; 5 °C, no Mn2+; 40 mM HEPES pH 7.2, 100 mM KCl, 5-30 °C, ±50 µM Mn2+; labeled RNA 50 nM or 100 nM (Methods)
T1 sequence: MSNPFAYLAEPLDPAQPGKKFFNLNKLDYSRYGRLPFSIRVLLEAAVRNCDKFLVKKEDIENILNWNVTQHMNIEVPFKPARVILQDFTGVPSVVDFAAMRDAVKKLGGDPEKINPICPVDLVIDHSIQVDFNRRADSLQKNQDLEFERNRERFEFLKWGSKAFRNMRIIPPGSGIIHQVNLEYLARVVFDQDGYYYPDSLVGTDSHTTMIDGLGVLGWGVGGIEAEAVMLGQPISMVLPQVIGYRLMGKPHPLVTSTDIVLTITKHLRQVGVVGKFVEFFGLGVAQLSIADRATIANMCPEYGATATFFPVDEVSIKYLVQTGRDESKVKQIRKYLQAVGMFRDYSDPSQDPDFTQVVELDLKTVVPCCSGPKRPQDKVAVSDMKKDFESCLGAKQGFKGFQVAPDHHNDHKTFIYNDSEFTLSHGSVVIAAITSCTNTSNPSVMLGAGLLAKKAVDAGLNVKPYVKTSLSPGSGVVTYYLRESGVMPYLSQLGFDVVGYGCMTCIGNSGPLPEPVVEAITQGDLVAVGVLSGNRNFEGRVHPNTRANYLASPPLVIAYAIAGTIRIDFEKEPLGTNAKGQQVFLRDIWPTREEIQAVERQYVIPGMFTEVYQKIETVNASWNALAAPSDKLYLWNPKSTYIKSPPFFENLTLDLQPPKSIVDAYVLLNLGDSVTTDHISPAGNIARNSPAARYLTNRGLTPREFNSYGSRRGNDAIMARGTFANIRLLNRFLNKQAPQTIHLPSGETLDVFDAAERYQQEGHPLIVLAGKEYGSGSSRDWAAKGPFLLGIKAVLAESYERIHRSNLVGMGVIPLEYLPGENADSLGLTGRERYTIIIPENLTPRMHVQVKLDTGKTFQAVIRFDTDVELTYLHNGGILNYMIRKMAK

[2] = target: T1, IRP1 (iron regulatory protein 1); assay: fluorescence anisotropy; 10 °C, no Mn2+; 40 mM HEPES pH 7.2, 100 mM KCl, 5-30 °C, ±50 µM Mn2+; labeled RNA 50 nM or 100 nM (Methods)
[3] = target: T1, IRP1 (iron regulatory protein 1); assay: fluorescence anisotropy; 15 °C, no Mn2+; 40 mM HEPES pH 7.2, 100 mM KCl, 5-30 °C, ±50 µM Mn2+; labeled RNA 50 nM or 100 nM (Methods)
[4] = target: T1, IRP1 (iron regulatory protein 1); assay: fluorescence anisotropy; 20 °C, no Mn2+; 40 mM HEPES pH 7.2, 100 mM KCl, 5-30 °C, ±50 µM Mn2+; labeled RNA 50 nM or 100 nM (Methods)
[5] = target: T1, IRP1 (iron regulatory protein 1); assay: fluorescence anisotropy; 25 °C, no Mn2+; 40 mM HEPES pH 7.2, 100 mM KCl, 5-30 °C, ±50 µM Mn2+; labeled RNA 50 nM or 100 nM (Methods)
[6] = target: T1, IRP1 (iron regulatory protein 1); assay: fluorescence anisotropy; 30 °C, no Mn2+; 40 mM HEPES pH 7.2, 100 mM KCl, 5-30 °C, ±50 µM Mn2+; labeled RNA 50 nM or 100 nM (Methods)

Binder	Kd [1] [µM]	Kd [2] [µM]	Kd [3] [µM]	Kd [4] [µM]	Kd [5] [µM]	Kd [6] [µM]
B1	0.0046 ± 0.0002	0.007 ± 0.0002	0.0086 ± 0.0003	0.0117 ± 0.0004	0.0142 ± 0.0003	0.0192 ± 0.0004
B2	0.0559 ± 0.003	0.0696 ± 0.005	0.089 ± 0.003	0.101 ± 0.007	0.129 ± 0.0033	0.155 ± 0.004
